Results taken from the DeepSol protein solubility set.

Test: soluble on expression in E. coli; label from the status in PepcDB or PDB records

Sequence | soluble on expression in E. coli
MNGFDGLQEEESSDLKSIQKELAILKLKLSEQESLFNSITENTLAGYWIWDIPLNTMFISAHLKSMLGYADHELENSPETINMLMHPSDLPATYALLSKHVESDGKVPFEIEVRYKHKNGSIVWVICSGNIVTRDENGKPSKMIGCHLDNTELKKAQGVQKYTEELERKNVEMEQFAYVASHDLQEPLNTIQGFIALLSAKLEDAPDPDVTQYLHYINQSTLRMTNLIKGLLEYSRIGKNVVMSKIDCNQVITDVLMDLHIQVEETQADIEVTPLPFVMGYDIELRILFQNLISNALKFSVRRPVIKIYSVVEGGYFKFSVADNGIGIDPQFREKIFKLYQQLHPKSTYEGNGLGLAQCFKIVTELHSGSIWVESNEKEGSIFHFTIPYNA | not soluble
MNHQETMTDYLMAFIEGLKNSGVEQAVISPGSRSTPLALLLHRETAIQTFVDVDERSAAFFALGLSKASQKPVVLLCTSGTAAANYYPAICEANISHVPLVVLTTDRPHELRQVGAPQAMDQLQMYQNHVKLFVEMALPEATEEMLNYAYWQGAKGAAFAQQTPAAPVHLNFPLREPLLPDLERKTKSSQQTALFAGQSILSTEQVQQLADQWYQKNGVLVVGGSHTEEEATLFIQLAEALQWPLLADPLANIVTHGQNSEVVIAHSDLFLNVATLPQEPEVVVRFGSLPISKNIMLWLKRLATTETAFYFVDENGQWQEQLKKSQTVIQAKETTFVEQLLTVVKPTEATWLAQWLLLEKTVSEVLLETLNATELNETTASLAVHQTMKENGQLFVSNSMAIRYLDRFMDSRPYRMFGNRGINGIDGIVSTALGMSAIAPTQQNVLLIGDLALYHDMNGLFLAKRYQLPLTIVLLNNNGGGIFSFLSQRTLREDDFEPLFGTPLDLDFSLVAELYGASYQEVKTIAELKQILQAAAEEPQFQVIEVKGNRQENVHLYESILAEIGRRVERQGISWNG | not soluble
MNHTEIRVVTGPANYFSHAGSLERLTDFFTPEQLSHAVWVYGERAIAAARPYLPEAFERAGAKHLPFTGHCSERHVAQLAHACNDDRQVVIGVGGGALLDTAKALARRLALPFVAIPTIAATCAAWTPLSVWYNDAGQALQFEIFDDANFLVLVEPRIILQAPDDYLLAGIGDTLAKWYEAVVLAPQPETLPLTVRLGINSACAIRDLLLDSSEQALADKQQRRLTQAFCDVVDAIIAGGGMVGGLGERYTRVAAAHAVHNGLTVLPQTEKFLHGTKVAYGILVQSALLGQDDVLAQLITAYRRFHLPARLSELDVDIHNTAEIDRVIAHTLRPVESIHYLPVTLTPDTLRAAFEKVEFFRI | not soluble
MNIAIIGGGIAGLATAHLLCDDHRVTLFEANDYLGGHTNTVDVSLDGTTLAVDTGFIVFNERTYPNFIRLLERLNVASRPSVMSFSVTSERNGLEYCATNLDTLFAQRRNFLNRPFWRMLREIVRFNREARELYDSHEMTLTLGDYLKNRGYSVTFVENFLVPMGAAIWSADPKRFAMFPAAAFVRFFTNHGILNVVDQPRWRVVAGGSREYVAPLARPFRDRVRLSTPVDRVRRFPDRVAVTTRGGETEYFDQVVLACHSDQALAMLTDPSDAERELLSAIPYQENDTVLHTDSRLLPGLPKARASWNCRIPRHERDGVFVTYWMNRLQSLATSTDFCVTLNGTEAIAPERIIRRITYHHPVYSPAAFEAQKRRDEISGTNRTWYCGAYWGYGFHEDGLNSALAVCRRFGRGLLEHHHHHH | not soluble
MNIDSDIFKIQSNNVLPSRGKILISEPFLRDATFGRSVVLLIDHTEEGSMGLIINKQLPIFVNDIIKEFKYIENIPLYKGGPIATDTLFYLHTLADIPGAIPISKGLYLNGDFDEIKKYILQGNKVDRYIRFFLGYSGWESEQLSTELKENTWLVSKEENAYLMNGDTKDMWKQALEKLGSKYETWSRFPQVPTFN | not soluble
MNIEIKDTLISEEQLQEKVKELALQIERDFEGEEIVVIAVLKGSFVFAADLIRHIKNDVTIDFISASSYGNQTETTGKVKLLKDIDVNITGKNVIVVEDIIDSGLTLHFLKDHFFMHKPKALKFCTLLDKPERRKVDLTAEYVGFQIPDEFIVGYGIDCAEKYRNLPFIASVVTEESYNLKSR | soluble
MNIFEAIENRHSVRDFLERKMPERVKDDIENLLVKFITKKLDWKINLSSFPSYIYAKAEKHFDELVEYGFQGEQIVLFLTAQGFGTCWMARSPHPDVPYIIVFGYPRTRNFTRKRRPITSFLENDLEELPPEIVKIVEMTILAPSALNRQPWKIKYTGGELCISSERPVDLGIALSHAYLTAREIFKREPVIQKRGEDTYCLILNP | not soluble
MNIFYEESGQFKIAAIIQKNDATYQVDTPHGKRTKVKANNVFAEFDGDMAAFLENAQAQAADIDTDLLWEVCGEEEFTAEAIAEEYYGHAPTKTELAATLIALYAAPMYFYKKAKGVFKAAPEETLKQALAAIERKKQQDAQIDAWAEALKRGEMPSEIAADLKTILHAPDKQSLTYKAFTKAADALKTSAYELAKKTGGITSIPQYLQDGFEIKYFPKGTGFPDLALPEMPDLPKADVTAFSIDDESTTEVDDALSLTDLDNGTKRVGIHIAAPSLAVKPGDKMEKNIMERLSTVYFPGGKITMLPENWIAAFSLDAGAHRPAVSIYFDVDGEFNVGAPTCKIEAVNIATNLRIQAIEPHFNAETGLDEAGEMMFAHHQDLIWFYQFATALQKARGKYEPDRAPQYDYSIELDEEGKVSVVRRERGSPIDTLVSEMMILANSTWAQMLHDNDLPGLFRVQPTGKVRMSTKSEPHIGMGVQHYGWFTSPLRRAADYINQKQLISLIDDTAEPLYQNSDAELFAALRDFDAAYTAYADFQRQMEAYWSLVYLQQQGTSELTATILKEDLVRIEGLPLVTRATGIPFDALPKSQALFKITELDAEKQFVSLNYIKAVAPAGTTAGNAV | not soluble
MNIKQFNEHITSLFGEHLHKYGDDEYGFTHISKDEFHKIGYTTNLTLETIEEAYRNGVDMIVTHHAPWSFLFGMEEACIEKLKQYEMNHFWVHLPLDFVKFGTCTSLFNGIGIDTILEYSTYEEEELPGIGEYKEAIPFSNLVGKLEERMEEKVKSWRNHDKPVKRIAILTGAGNNTNLIERALEKGCDTYITGEKTLYTVQHAKFKGINLIVGSHTFTEVFGVESLAHKLKERDNSIEITRLNEEHLELEHHHHHH | not soluble
MNILGIETSCDETSAAVLSDGSVRSNIVSSQRCHTDFGGVVPELASREHERLIVSIVDAAITEANIAKNDLDVIAATAGPGLIGAVMVGLCFAEGLAWALGKPFVPVNHVEAHIFSPFISDEPGHREPKGDFVSLTVSGGHTLLSVVRQDLGYEVIGRTIDDAAGEAFDKTGKMLGLGYPAGPVIDRLAREGDSDFHRFPRALTASSQTSKSYRGNFDFSFSGLKTSVRTWLEAHDSEYVQKHQADLAASIQSAIVEVLVEKSVAAALLHKVNAISVAGGVSANSGLRSAMQAACDRHGIELFIPALAYSTDNAAMIATMAQLMIARGKYRIEDNSYGVAPFARFEAARKGAR | not soluble
MNIMSESIPQFYKRIQRCDPQLGTTYSKENPYFNVLSRQCNFGTVQFSYRDFYKVTLIIGVGKLYYADKWILVNRPAMLFSNPLVPYAWESISEEQKGMFCIFNEQFVQSEEKNGSLANTPLFKVTGDKVFFLNDAQVAKVMDIYTQMQEENQSDYANKHDVLRCYLHLLIHTALKMQESNKYESHPNASQRITELFIELLDRQFPVDYPHSVLSLRTPADYANRLSIHVNHLNKVVKDTTGKTTSTMIAERIIKECTQYLLHSNFSISEIAYSLGFENMAYFSKFYRKHTGKSPSEIREQQLFDLCK | not soluble
MNIQNIRTLLDTVAVPNTARTLGGEKAVRSVEQRSDGIHIALHFGFPVAHIASETADRIQEILMPETGDTHIHLSMDTEIGTHKVQPGVTTIKGVKNIIAVASGKGGVGKSTTTANLAAAMARMGARVGVLDADLYGPSQPTMLGVDDRKPDQKNQKLIPVESSDGIQVMSIGFLVDTDQAVVWRGPMVSQALQQLMFQSEWDEVDYLFIDLPPGTGDIQLTLSQRIPVTGSVIVTTPQDIALIDARKAVDMFRKVNIPILGVLENMSVHICTNCGHSEALFGTDGGKDFAARLNVPLLGQLPLSLPVREAMDGGTPAQLFDEHPAIARIYTDAAFQIALSIADKGKDFSSRFPKIVVE | not soluble
MNIVALHVVLYHPEIPANTGNIARTCAATNTTLHLIRPLGFSTDDKMLKRAGLDYWEFVNVVYHDSLEELFEAYKKGKFFFITKFGQQPHTSFDYTDLDEDYFFVFGRETSGLPKDLIQNNMDRCLRLPMTEHVRSLNLSNTAAILVYEALRQQNYRDLK | soluble
MNKALSVENLGFYYQAENFLFQQLNFDLNKGDILAVLGQNGCGKSTLLDLLLGIHRPIQGKIEVYQSIGFVPQFFSSPFAYSVLDIVLMGRSTHINTFAKPKSHDYQVAMQALDYLNLTHLAKREFTSLSGGQRQLILIARAIASECKLILLDEPTSALDLANQDIVLSLLIDLAQSQNMTVVFTTHQPNQVVAIANKTLLLNKQNFKFGETRNILTSENLTALFHLPMFEQQAQYKESFFTHFVPLYKTLLK | soluble
MNKDQSKIPQATAKRLPLYYRFLKNLHASGKQRVSSAELSDAVKVDSATIRRDFSYFGALGKKGYGYNVDYLLSFFRKTLDQDEMTDVILIGVGNLGTAFLHYNFTKNNNTKISMAFDINESKIGTEVGGVPVYNLDDLEQHVKDESVAILTVPAVAAQSITDRLVALGIKGILNFTPARLNVPEHIRIHHIDLAVELQSLVYFLKHYSVLEEIE | soluble
MNKEEIILSAKNWMHSHFENETTGHDWSHIKRVWKLSKEIQSKEGGDLFTIELAALFHDYSDIKLTTDEQEATKTLINWMETKEIPSELIKKIIRIIQSVSFKKGKNTFKALTIEEKIVQDADRLDAIGAIGIARTFTYGGAHNREIANQNNPKNTTLQHFYDKLLLIKDQLNTETAKTIAKEKQKIMQDFIQALEKELKVLEHHHHHH | soluble
MNKEKEQQLNEALVLFSFAYKTFTEEPDLIIKKYGIQRIHHRILFFVARFPGLSVNELLKLLEISKQALHKPMHILINKGLIFSKESDYDRRIKEIFLTNEGERLEKEISNIQREHLLSIFSQFHNGDEKSWLEIMRQLSLKRLGYAAWNKKK | not soluble
MNKFKGNKVVLIGNGAVGSSYAFSLVNQSIVDELVIIDLDTEKVRGDVMDLKHATPYSPTTVRVKAGEYSDCHDADLVVICAGARQKPGETRLDLVSKNLKIFKSIVGEVMASKFDGIFLVATNPVDILAYATWKFSGLPKERVIGSGTILDSARFRLLLSEAFDVAPRSVDAQIIGEHGDTELPVWSHANIAGQPLKTLLEQRPEGKAQIEQIFVQTRDAAYDIIQAKGATYYGVAMGLARITEAIFRNEDAVLTVSALLEGEYEEEDVYIGVPAVINRNGIRNVVEIPLNDEEQSKFAHSAKTLKDIMAEAEELK | soluble
MNKIKILSITLEKRIISKNENDHSHQVIGQETEMTSKLEIRHKQRQDEIINAARRCFRRCGFHAASMSQIASEAQLSVGQIYRYFANKDAIIEEMVRRIIDFRIAQMDIDARTDHFPEVLALRKSLNEDDDALMLEVAAEATRNPRVMAMLEEADARMFANGCAHMKRMHPHLSDEHIRCCVEVFATMMEGTVYRRLTPQKSDPQHLQEIYQDIVSMLINK | not soluble
MNKILIAAASSGTGKTTVTLGIMHALKKRGLRVQPFKVGPDYIDTNYHQAITGVASINLDSFLIDDDAMLAALFEKHGQSADISVIEGVMGLFDGLGIDRDNSSTSFIAKCTKTPVILVVDGKAISTSAAAIVDGFNRFDPELTIAGVIINRVASENHFSLIKGAIERYTDVPVLGYLPKNAAVALPERHLGLVPKEEMTELETKWEVLGDLIAEHVDLDRLLAISKTGAKLTVHPPEIQVPDFSGMRVAYALDAAFHFYYQDNLDFIRSTGATLIPFSPLEEREVPDADFIYIGGGFPEVFAERLAKNKSMHESILAAHEQGKPIYAECGGLMYLGSSLEMEAESYEMVGVFDGVSKMTTRLRKFGYCIAEPLEDTLLGKKGTAIRGHEFHHSVFETTEPTRMKLTKKRDGETVKEWHGGYQKGNTFASYLHIHFYQNLAMITHMFGAIERLEHHHHHH | soluble
